Article doi:10.1101/2022.08.10.503460
Blank lines part the entries; values can stand above or below the substance they belong to.

What was measured:
Pcdh15 EC1-11 PICA [1] = test: AFM force-clamp spectroscopy
Cdh23 EC1-5 = test: AFM force-clamp spectroscopy
full-length Cdh23 EC1-27 = test: AFM force-clamp spectroscopy
Pcdh15 EC1-11 PICA [2] = target: Pcdh15 EC1-11 PICA
[3] = target: Mouse Cdh23 EC1-2 (mouse) (UniProt Q99PF4); test: AFM force-clamp spectroscopy
Sequence of Mouse Cdh23 EC1-2 (mouse) (Q99PF4 24-228): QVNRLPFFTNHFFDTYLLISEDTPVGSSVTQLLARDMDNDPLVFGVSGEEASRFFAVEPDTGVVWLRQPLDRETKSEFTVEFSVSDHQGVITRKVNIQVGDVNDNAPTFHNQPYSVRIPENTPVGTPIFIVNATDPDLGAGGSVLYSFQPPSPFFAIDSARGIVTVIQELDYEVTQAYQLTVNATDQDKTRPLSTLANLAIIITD

intrinsic lifetime at no force (τ0) (Pcdh15 EC1-11 PICA [1]): 30 s
Substance: Cdh23 EC1-27 Fc dimer (Fc fusion)

Substance: Mouse Pcdh15 EC1-2 (from UniProt Q99PJ1 27-259) (domain or fragment)
zero-force lifetime (Cdh23 EC1-5): 1.5 s
zero-force lifetime (full-length Cdh23 EC1-27): 10 s

stoichiometry N (Pcdh15 EC1-11 PICA [2]): 2
Substance: Pcdh15 EC1-11 PICA (domain or fragment)

koff [3]: 0.3 s⁻¹
Substance: Pcdh15 EC1-2 (R113G), Q99PJ1 27-259 (domain or fragment; other documents disagree on this pair)
